These results are taken from patent US20220356258A1 (Boehringer Ingelheim, published 2022).

Assay [1] deals with T1, protein A/G (immobilized on the SPR sensor chip).
T1 construct: Capture protein in the first step of the IL36R SPR assay; also called protein A/G sensor chip
Kind of assay: SPR, first step: capture on protein A/G immobilized on the sensor chip. (SPR reads the build-up and loss of mass on a sensor chip optically.)

Assay [2] deals with T2, IL-36 receptor (IL-36R) (UniProt Q9HB29 20-335, limits assumed).
T2 construct: also called IL-1Rrp2
T2 sequence (looked up): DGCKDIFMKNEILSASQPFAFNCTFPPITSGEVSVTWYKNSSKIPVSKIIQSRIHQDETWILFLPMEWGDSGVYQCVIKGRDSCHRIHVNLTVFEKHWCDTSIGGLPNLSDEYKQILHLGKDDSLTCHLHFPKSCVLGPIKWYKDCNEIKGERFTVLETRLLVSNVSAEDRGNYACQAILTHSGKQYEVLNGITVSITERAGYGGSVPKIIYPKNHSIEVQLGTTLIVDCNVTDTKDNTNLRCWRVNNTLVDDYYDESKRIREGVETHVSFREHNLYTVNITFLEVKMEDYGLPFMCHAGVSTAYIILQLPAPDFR
Kind of assay: SPR, second step: IL36R binding activity of the species bound to protein A/G.

The next assay has as its target T3, FcRn (Homo sapiens (Human), UniProt P55899 24-297; P61769 21-119).
T3 construct: In nature it is a heterodimer of the FcRn alpha chain and beta-2-microglobulin; also called neonatal Fc receptor; copies: 1 + 1
Kind of assay: SPR, FcRn binding.

Assay [3] addresses T2, IL-36 receptor (IL-36R). Kind of assay: cell-based or functional assay.

T3 sequence (P55899 24-297 limits assumed, form in doubt, chain 1 of 2): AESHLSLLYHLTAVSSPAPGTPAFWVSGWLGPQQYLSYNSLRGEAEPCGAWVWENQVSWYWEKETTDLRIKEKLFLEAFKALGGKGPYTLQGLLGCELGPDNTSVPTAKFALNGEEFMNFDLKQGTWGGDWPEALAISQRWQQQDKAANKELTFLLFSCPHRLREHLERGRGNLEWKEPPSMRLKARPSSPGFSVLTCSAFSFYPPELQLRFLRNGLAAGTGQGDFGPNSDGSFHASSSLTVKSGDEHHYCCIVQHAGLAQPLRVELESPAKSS
T3 sequence (P61769 21-119 limits assumed, form in doubt, chain 2 of 2): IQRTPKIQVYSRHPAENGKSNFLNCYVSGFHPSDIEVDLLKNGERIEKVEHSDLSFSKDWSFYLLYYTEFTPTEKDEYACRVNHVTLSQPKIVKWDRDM

B1: Spesolimab AP4 fraction (CEX acidic peak fraction AP4) (antibody, human IgG1, kappa, L234A L235A)
heavy: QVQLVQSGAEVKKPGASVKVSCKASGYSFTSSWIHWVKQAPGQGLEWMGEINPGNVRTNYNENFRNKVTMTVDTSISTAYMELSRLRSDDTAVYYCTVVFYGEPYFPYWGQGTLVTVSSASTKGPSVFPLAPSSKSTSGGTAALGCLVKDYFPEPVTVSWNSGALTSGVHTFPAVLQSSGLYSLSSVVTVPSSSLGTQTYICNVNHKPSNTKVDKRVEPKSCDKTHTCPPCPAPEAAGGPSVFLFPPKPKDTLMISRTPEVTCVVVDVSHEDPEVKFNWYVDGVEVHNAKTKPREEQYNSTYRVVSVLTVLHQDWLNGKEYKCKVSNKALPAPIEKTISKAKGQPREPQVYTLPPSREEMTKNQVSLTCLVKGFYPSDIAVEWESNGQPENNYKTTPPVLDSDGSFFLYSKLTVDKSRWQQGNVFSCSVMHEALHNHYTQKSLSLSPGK
light: QIVLTQSPGTLSLSPGERATMTCTASSSVSSSYFHWYQQKPGQAPRLWIYRTSRLASGVPDRFSGSGSGTDFTLTISRLEPEDAATYYCHQFHRSPLTFGAGTKLEIKRTVAAPSVFIFPPSDEQLKSGTASVVCLLNNFYPREAKVQWKVDNALQSGNSQESVTEQDSKDSTYSLSSTLTLSKADYEKHKVYACEVTHQGLSSPVTKSFNRGEC
notes: Humanized IgG1 anti-IL-36R antibody from CHO-DG44 cells; Cation exchange fraction, RT 16.0-18.7 min, 0.5% of total CEX area; also called most acidic fraction AP4
Take B1: in assay [1], the “Recovery [%] (amount of species binding to protein A/G)” value (shortened to “Recovery [%]”) stood at 75%. Moreover, the “Potency [%] (IL36R binding, SPR)” value with IL-36 receptor (IL-36R) [2] was determined as 93%. In addition, the “Binding [%] (FcRn binding, SPR)” value with FcRn came to 69%. The “IL36R bioassay Potency [%]” value with IL-36 receptor (IL-36R) [3] was 60%.

B2: Spesolimab AP3b fraction (CEX acidic peak fraction AP3b) (antibody, human IgG1, kappa, L234A L235A)
heavy: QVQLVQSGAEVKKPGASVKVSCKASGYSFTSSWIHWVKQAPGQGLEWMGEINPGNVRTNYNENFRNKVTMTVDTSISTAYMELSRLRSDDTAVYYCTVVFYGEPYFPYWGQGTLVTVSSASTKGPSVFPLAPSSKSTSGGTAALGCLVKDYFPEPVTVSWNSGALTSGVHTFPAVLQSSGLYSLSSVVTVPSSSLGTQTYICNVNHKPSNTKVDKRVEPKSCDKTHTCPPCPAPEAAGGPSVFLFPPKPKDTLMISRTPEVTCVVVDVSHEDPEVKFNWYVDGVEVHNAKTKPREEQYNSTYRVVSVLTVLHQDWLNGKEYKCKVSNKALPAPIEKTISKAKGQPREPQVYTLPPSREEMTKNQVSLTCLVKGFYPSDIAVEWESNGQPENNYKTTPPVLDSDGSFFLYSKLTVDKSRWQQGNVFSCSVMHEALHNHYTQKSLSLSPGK
light: QIVLTQSPGTLSLSPGERATMTCTASSSVSSSYFHWYQQKPGQAPRLWIYRTSRLASGVPDRFSGSGSGTDFTLTISRLEPEDAATYYCHQFHRSPLTFGAGTKLEIKRTVAAPSVFIFPPSDEQLKSGTASVVCLLNNFYPREAKVQWKVDNALQSGNSQESVTEQDSKDSTYSLSSTLTLSKADYEKHKVYACEVTHQGLSSPVTKSFNRGEC
notes: IgG1; Cation exchange fraction, RT 18.7-20.6 min, 0.8% of total CEX area
Regarding B2, the “Recovery [%]” value in assay [1] stood at 87%. The “Potency [%] (IL36R binding, SPR)” value with IL-36 receptor (IL-36R) [2] was 93%. The “Binding [%] (FcRn binding, SPR)” value with FcRn amounted to 84%. In addition, the “IL36R bioassay Potency [%]” value in the assay with IL-36 receptor (IL-36R) [3] was 80%.

B3: Spesolimab BP1 fraction (CEX basic peak fraction BP1) (antibody, human IgG1, kappa, L234A L235A)
heavy: not shown
light: QIVLTQSPGTLSLSPGERATMTCTASSSVSSSYFHWYQQKPGQAPRLWIYRTSRLASGVPDRFSGSGSGTDFTLTISRLEPEDAATYYCHQFHRSPLTFGAGTKLEIKRTVAAPSVFIFPPSDEQLKSGTASVVCLLNNFYPREAKVQWKVDNALQSGNSQESVTEQDSKDSTYSLSSTLTLSKADYEKHKVYACEVTHQGLSSPVTKSFNRGEC
notes: IgG1; Cation exchange fraction, RT 30.2-31.7 min, 3.75% of total CEX area
For B3, in assay [1], the “Recovery [%]” value turned out to be 93%. Besides, in the assay with IL-36 receptor (IL-36R) [2], the “Potency [%] (IL36R binding, SPR)” value came out at 100%. In the assay with FcRn, the “Binding [%] (FcRn binding, SPR)” value was 95%. In the assay with IL-36 receptor (IL-36R) [3], the “IL36R bioassay Potency [%]” value came to 97%.

B4: Spesolimab AP1a fraction (CEX acidic peak fraction AP1a) (antibody, human IgG1, kappa, L234A L235A)
heavy: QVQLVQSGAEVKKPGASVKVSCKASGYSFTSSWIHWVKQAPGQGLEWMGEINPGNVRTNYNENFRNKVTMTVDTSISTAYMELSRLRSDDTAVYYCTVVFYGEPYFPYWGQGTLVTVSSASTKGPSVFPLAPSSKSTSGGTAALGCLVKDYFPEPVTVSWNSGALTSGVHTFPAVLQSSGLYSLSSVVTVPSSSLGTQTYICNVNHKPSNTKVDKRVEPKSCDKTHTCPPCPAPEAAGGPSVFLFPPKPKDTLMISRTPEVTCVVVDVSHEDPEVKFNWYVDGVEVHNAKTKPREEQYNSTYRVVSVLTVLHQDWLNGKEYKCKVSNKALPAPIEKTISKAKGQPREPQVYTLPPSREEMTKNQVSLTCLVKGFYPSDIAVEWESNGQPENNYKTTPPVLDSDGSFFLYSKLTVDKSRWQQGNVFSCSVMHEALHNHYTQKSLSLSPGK
light: QIVLTQSPGTLSLSPGERATMTCTASSSVSSSYFHWYQQKPGQAPRLWIYRTSRLASGVPDRFSGSGSGTDFTLTISRLEPEDAATYYCHQFHRSPLTFGAGTKLEIKRTVAAPSVFIFPPSDEQLKSGTASVVCLLNNFYPREAKVQWKVDNALQSGNSQESVTEQDSKDSTYSLSSTLTLSKADYEKHKVYACEVTHQGLSSPVTKSFNRGEC
notes: IgG1; Cation exchange fraction, RT 27.3-28.2 min, 13.6% of total CEX area
For the molecule B4, in assay [1], the “Recovery [%]” value amounted to 93%. The “Potency [%] (IL36R binding, SPR)” value with IL-36 receptor (IL-36R) [2] is 99%. Besides, the “Binding [%] (FcRn binding, SPR)” value with FcRn turned out to be 92%. For the same molecule, in the assay with IL-36 receptor (IL-36R) [3], the “IL36R bioassay Potency [%]” value was determined as 102%.

B5: Spesolimab CMC2 source (Drug Substance source material, unfractionated) (antibody, human IgG1, kappa, L234A L235A)
heavy: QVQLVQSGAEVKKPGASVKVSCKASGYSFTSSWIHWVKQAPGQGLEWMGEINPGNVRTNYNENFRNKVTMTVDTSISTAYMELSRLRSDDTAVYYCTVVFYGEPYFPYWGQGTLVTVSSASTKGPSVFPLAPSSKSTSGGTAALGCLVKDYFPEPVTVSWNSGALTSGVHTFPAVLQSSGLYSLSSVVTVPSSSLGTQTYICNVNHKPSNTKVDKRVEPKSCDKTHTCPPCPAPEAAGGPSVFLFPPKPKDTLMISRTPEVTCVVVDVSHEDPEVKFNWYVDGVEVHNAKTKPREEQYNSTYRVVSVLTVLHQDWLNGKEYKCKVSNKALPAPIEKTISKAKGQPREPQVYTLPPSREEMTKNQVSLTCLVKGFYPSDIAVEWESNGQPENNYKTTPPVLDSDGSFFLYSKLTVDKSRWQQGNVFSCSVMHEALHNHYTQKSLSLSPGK
light: QIVLTQSPGTLSLSPGERATMTCTASSSVSSSYFHWYQQKPGQAPRLWIYRTSRLASGVPDRFSGSGSGTDFTLTISRLEPEDAATYYCHQFHRSPLTFGAGTKLEIKRTVAAPSVFIFPPSDEQLKSGTASVVCLLNNFYPREAKVQWKVDNALQSGNSQESVTEQDSKDSTYSLSSTLTLSKADYEKHKVYACEVTHQGLSSPVTKSFNRGEC
notes: Humanized monoclonal IgG1 anti-IL-36R antibody, CAS 2097104-58-8, produced in CHO-DG44 cells; This is the unfractionated material from which the CEX fractions were collected
Regarding B5, in assay [1], the “Recovery [%]” value was found to be 93%. For the same molecule, the “Potency [%] (IL36R binding, SPR)” value with IL-36 receptor (IL-36R) [2] came out at 101%. In the assay with FcRn, the “Binding [%] (FcRn binding, SPR)” value was determined as 94%. Moreover, the “IL36R bioassay Potency [%]” value with IL-36 receptor (IL-36R) [3] was 91%.

B6: Spesolimab AP1b fraction (CEX acidic peak fraction AP1b) (antibody, human IgG1, kappa, L234A L235A)
heavy: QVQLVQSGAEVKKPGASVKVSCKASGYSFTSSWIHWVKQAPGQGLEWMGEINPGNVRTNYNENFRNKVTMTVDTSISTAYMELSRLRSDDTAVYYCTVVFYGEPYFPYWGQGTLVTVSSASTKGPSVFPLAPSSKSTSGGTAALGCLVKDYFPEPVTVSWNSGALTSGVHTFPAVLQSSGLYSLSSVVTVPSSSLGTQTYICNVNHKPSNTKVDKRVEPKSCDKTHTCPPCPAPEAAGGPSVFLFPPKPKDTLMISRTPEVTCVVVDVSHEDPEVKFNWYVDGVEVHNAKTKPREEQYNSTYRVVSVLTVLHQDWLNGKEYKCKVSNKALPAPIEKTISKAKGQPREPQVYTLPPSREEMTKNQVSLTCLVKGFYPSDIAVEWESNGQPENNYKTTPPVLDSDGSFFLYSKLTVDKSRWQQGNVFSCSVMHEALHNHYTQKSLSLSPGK
light: QIVLTQSPGTLSLSPGERATMTCTASSSVSSSYFHWYQQKPGQAPRLWIYRTSRLASGVPDRFSGSGSGTDFTLTISRLEPEDAATYYCHQFHRSPLTFGAGTKLEIKRTVAAPSVFIFPPSDEQLKSGTASVVCLLNNFYPREAKVQWKVDNALQSGNSQESVTEQDSKDSTYSLSSTLTLSKADYEKHKVYACEVTHQGLSSPVTKSFNRGEC
notes: IgG1; Cation exchange fraction, RT 26.0-27.3 min, 7.6% of total CEX area
For the molecule B6, in assay [1], the “Recovery [%]” value stood at 92%. Moreover, the “Potency [%] (IL36R binding, SPR)” value with IL-36 receptor (IL-36R) [2] stood at 100%. Also, the “Binding [%] (FcRn binding, SPR)” value in the assay with FcRn came to 89%. Further, in the assay with IL-36 receptor (IL-36R) [3], the “IL36R bioassay Potency [%]” value turned out to be 99%.

B7: Spesolimab BP2 fraction (CEX basic peak fraction BP2) (antibody, human IgG1, kappa, L234A L235A)
heavy: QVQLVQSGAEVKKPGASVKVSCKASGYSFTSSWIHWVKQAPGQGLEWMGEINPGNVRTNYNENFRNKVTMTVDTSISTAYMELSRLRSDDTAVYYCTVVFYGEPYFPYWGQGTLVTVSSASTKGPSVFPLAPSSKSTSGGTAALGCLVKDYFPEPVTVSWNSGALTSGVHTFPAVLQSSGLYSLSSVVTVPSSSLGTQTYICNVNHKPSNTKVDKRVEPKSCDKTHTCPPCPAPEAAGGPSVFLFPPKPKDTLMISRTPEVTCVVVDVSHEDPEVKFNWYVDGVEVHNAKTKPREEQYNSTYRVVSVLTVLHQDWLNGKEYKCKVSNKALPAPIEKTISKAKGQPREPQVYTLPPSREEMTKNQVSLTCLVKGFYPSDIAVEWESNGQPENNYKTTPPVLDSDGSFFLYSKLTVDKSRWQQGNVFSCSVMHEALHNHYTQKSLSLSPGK
light: QIVLTQSPGTLSLSPGERATMTCTASSSVSSSYFHWYQQKPGQAPRLWIYRTSRLASGVPDRFSGSGSGTDFTLTISRLEPEDAATYYCHQFHRSPLTFGAGTKLEIKRTVAAPSVFIFPPSDEQLKSGTASVVCLLNNFYPREAKVQWKVDNALQSGNSQESVTEQDSKDSTYSLSSTLTLSKADYEKHKVYACEVTHQGLSSPVTKSFNRGEC
notes: IgG1; Cation exchange fraction, RT 31.7-33.5 min, 2.4% of total CEX area
As for B7, the “Recovery [%]” value in assay [1] was 84%. The “Potency [%] (IL36R binding, SPR)” value in the assay with IL-36 receptor (IL-36R) [2] was found to be 100%. The “Binding [%] (FcRn binding, SPR)” value with FcRn was found to be 91%. Further, the “IL36R bioassay Potency [%]” value with IL-36 receptor (IL-36R) [3] was 97%.

B8: Spesolimab AP2 fraction (CEX acidic peak fraction AP2) (antibody, human IgG1, kappa, L234A L235A)
heavy: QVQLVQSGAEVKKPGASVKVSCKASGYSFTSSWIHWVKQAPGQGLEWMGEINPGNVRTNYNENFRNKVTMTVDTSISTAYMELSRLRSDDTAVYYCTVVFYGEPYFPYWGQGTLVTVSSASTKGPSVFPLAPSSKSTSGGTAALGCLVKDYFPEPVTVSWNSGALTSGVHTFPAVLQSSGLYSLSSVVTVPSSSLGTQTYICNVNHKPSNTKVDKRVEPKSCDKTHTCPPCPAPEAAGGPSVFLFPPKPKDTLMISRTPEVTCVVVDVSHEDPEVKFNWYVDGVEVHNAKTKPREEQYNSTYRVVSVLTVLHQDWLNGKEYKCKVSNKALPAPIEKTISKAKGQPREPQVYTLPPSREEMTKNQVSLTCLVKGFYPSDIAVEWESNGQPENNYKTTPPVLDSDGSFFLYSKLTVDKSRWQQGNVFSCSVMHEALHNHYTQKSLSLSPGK
light: QIVLTQSPGTLSLSPGERATMTCTASSSVSSSYFHWYQQKPGQAPRLWIYRTSRLASGVPDRFSGSGSGTDFTLTISRLEPEDAATYYCHQFHRSPLTFGAGTKLEIKRTVAAPSVFIFPPSDEQLKSGTASVVCLLNNFYPREAKVQWKVDNALQSGNSQESVTEQDSKDSTYSLSSTLTLSKADYEKHKVYACEVTHQGLSSPVTKSFNRGEC
notes: IgG1; Cation exchange fraction, RT 22.7-24.1 min, 2.4% of total CEX area
As for B8, the “Recovery [%]” value in assay [1] worked out at 90%. Besides, in the assay with IL-36 receptor (IL-36R) [2], the “Potency [%] (IL36R binding, SPR)” value is 99%. Also, the “IL36R bioassay Potency [%]” value in the assay with IL-36 receptor (IL-36R) [3] is 94%.

B9: Spesolimab AP1c fraction (CEX acidic peak fraction AP1c) (antibody, human IgG1, kappa, L234A L235A)
heavy: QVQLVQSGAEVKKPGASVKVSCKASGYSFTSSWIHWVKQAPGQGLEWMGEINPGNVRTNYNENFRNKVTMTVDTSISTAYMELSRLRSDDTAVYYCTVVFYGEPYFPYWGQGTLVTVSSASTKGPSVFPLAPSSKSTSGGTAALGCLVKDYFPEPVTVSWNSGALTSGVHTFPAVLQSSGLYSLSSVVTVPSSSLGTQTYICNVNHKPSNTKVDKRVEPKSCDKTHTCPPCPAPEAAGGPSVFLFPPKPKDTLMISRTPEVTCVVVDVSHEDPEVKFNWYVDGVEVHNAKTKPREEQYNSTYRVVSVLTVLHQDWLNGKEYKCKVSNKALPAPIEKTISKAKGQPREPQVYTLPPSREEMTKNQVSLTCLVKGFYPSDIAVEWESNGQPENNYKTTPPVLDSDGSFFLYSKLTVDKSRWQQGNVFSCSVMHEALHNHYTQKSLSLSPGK
light: QIVLTQSPGTLSLSPGERATMTCTASSSVSSSYFHWYQQKPGQAPRLWIYRTSRLASGVPDRFSGSGSGTDFTLTISRLEPEDAATYYCHQFHRSPLTFGAGTKLEIKRTVAAPSVFIFPPSDEQLKSGTASVVCLLNNFYPREAKVQWKVDNALQSGNSQESVTEQDSKDSTYSLSSTLTLSKADYEKHKVYACEVTHQGLSSPVTKSFNRGEC
notes: IgG1; Cation exchange fraction, RT 24.1-26.0 min, 2.2% of total CEX area
As for B9, in assay [1], the “Recovery [%]” value amounted to 90%. The “Potency [%] (IL36R binding, SPR)” value with IL-36 receptor (IL-36R) [2] is 100%. Moreover, the “Binding [%] (FcRn binding, SPR)” value with FcRn was 90%. Also, the “IL36R bioassay Potency [%]” value with IL-36 receptor (IL-36R) [3] worked out at 102%.

B10: Spesolimab MP fraction (CEX main peak fraction) (antibody, human IgG1, kappa, L234A L235A)
heavy: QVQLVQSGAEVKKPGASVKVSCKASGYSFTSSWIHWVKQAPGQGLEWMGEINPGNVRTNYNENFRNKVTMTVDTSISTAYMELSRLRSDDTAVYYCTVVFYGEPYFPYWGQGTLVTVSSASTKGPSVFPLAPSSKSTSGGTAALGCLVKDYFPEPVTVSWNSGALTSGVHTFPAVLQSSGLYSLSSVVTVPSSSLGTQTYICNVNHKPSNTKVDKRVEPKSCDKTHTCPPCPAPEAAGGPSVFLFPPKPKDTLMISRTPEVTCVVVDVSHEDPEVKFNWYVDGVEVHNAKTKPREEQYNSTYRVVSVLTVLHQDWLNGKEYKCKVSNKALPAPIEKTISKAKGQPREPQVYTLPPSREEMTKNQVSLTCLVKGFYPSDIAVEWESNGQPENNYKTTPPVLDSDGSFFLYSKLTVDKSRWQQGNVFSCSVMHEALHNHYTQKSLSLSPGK
light: QIVLTQSPGTLSLSPGERATMTCTASSSVSSSYFHWYQQKPGQAPRLWIYRTSRLASGVPDRFSGSGSGTDFTLTISRLEPEDAATYYCHQFHRSPLTFGAGTKLEIKRTVAAPSVFIFPPSDEQLKSGTASVVCLLNNFYPREAKVQWKVDNALQSGNSQESVTEQDSKDSTYSLSSTLTLSKADYEKHKVYACEVTHQGLSSPVTKSFNRGEC
notes: IgG1
As for B10, the “Recovery [%]” value in assay [1] worked out at 95%. In addition, the “Potency [%] (IL36R binding, SPR)” value with IL-36 receptor (IL-36R) [2] worked out at 102%. The “Binding [%] (FcRn binding, SPR)” value in the assay with FcRn amounted to 95%. In the assay with IL-36 receptor (IL-36R) [3], the “IL36R bioassay Potency [%]” value stood at 110%.

B11: Spesolimab AP3a fraction (CEX acidic peak fraction AP3a) (antibody, human IgG1, kappa, L234A L235A)
heavy: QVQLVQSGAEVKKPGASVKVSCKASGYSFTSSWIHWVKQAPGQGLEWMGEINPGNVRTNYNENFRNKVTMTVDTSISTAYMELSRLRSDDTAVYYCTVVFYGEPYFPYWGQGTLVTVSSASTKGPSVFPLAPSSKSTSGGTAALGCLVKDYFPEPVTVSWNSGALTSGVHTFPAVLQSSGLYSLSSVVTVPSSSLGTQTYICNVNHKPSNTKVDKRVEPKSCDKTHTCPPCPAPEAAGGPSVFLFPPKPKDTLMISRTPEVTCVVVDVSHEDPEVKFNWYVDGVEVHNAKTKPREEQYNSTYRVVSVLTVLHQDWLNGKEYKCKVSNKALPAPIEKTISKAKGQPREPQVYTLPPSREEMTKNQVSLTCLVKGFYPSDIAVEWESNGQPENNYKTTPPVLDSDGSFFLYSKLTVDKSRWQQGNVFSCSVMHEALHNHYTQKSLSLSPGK
light: QIVLTQSPGTLSLSPGERATMTCTASSSVSSSYFHWYQQKPGQAPRLWIYRTSRLASGVPDRFSGSGSGTDFTLTISRLEPEDAATYYCHQFHRSPLTFGAGTKLEIKRTVAAPSVFIFPPSDEQLKSGTASVVCLLNNFYPREAKVQWKVDNALQSGNSQESVTEQDSKDSTYSLSSTLTLSKADYEKHKVYACEVTHQGLSSPVTKSFNRGEC
notes: IgG1; Cation exchange fraction, RT 20.6-22.7 min, 2.8% of total CEX area
Take B11: the “Recovery [%]” value in assay [1] came out at 88%. The “Potency [%] (IL36R binding, SPR)” value with IL-36 receptor (IL-36R) [2] is 98%. For the same molecule, the “Binding [%] (FcRn binding, SPR)” value with FcRn worked out at 88%. In the assay with IL-36 receptor (IL-36R) [3], the “IL36R bioassay Potency [%]” value was 91%.

B12: Spesolimab BP3 fraction (CEX basic peak fraction BP3) (antibody, human IgG1, kappa, L234A L235A)
heavy: not shown
light: QIVLTQSPGTLSLSPGERATMTCTASSSVSSSYFHWYQQKPGQAPRLWIYRTSRLASGVPDRFSGSGSGTDFTLTISRLEPEDAATYYCHQFHRSPLTFGAGTKLEIKRTVAAPSVFIFPPSDEQLKSGTASVVCLLNNFYPREAKVQWKVDNALQSGNSQESVTEQDSKDSTYSLSSTLTLSKADYEKHKVYACEVTHQGLSSPVTKSFNRGEC
notes: IgG1; Cation exchange fraction, RT 33.5-36.2 min, 1.3% of total CEX area; also called most basic fraction BP3
For B12, the “Recovery [%]” value in assay [1] was 70%. Further, in the assay with IL-36 receptor (IL-36R) [2], the “Potency [%] (IL36R binding, SPR)” value worked out at 100%.
